According to patent publication US20180319842A1 (TUFTS MEDICAL CENTER, published 2018):
Groups on a side chain read outwards from the residue. No end group written: not given here. *: point of attachment. PEG8 = NCCOCCOCCOCCOCCOCCOCCOCCOCCC(=O)O; Palmitoyl = CCCCCCCCCCCCCCCC(=O)*

Tests used:
Experiment in all cases: cell-based or functional assay
[1] = molecular target: T1, Mas-related G protein-coupled receptor X1 (MrgprX1), wild type (human, UniProt Q96LB2 1-322)
MrgprX1 R131S variant = MrgprX1 R131S variant (human, UniProt Q96LB2 1-322)
Sequence of MrgprX1 R131S variant (Q96LB2 whole entry R131S): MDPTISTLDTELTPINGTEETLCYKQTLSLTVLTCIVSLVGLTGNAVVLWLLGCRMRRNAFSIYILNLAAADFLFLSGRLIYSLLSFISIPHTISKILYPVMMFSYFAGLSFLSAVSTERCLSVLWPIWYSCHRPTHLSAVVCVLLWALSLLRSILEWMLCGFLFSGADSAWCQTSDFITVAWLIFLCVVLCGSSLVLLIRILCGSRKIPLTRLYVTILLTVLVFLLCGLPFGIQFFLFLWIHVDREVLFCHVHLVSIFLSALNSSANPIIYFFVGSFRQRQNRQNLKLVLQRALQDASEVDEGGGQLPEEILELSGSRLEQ

MrgprX1 F273L variant = MrgprX1 F273L variant (human, UniProt Q96LB2 1-322)
Sequence of MrgprX1 F273L variant (Q96LB2 whole entry F273L): as the sequence (Q96LB2 whole entry R131S) above, with S131R, F273L counted along it

MrgprX1 H133R variant = MrgprX1 H133R variant (human, UniProt Q96LB2 1-322)
Sequence of MrgprX1 H133R variant (Q96LB2 whole entry H133R): as the sequence (Q96LB2 whole entry R131S) above, with S131R, H133R counted along it

MrgprX1 I36V variant = MrgprX1 I36V variant (human, UniProt Q96LB2 1-322)
Sequence of MrgprX1 I36V variant (Q96LB2 whole entry I36V): as the sequence (Q96LB2 whole entry R131S) above, with I36V, S131R counted along it

MrgprX1 R55L variant = MrgprX1 R55L variant (human, UniProt Q96LB2 1-322)
Sequence of MrgprX1 R55L variant (Q96LB2 whole entry R55L): as the sequence (Q96LB2 whole entry R131S) above, with R55L, S131R counted along it

MrgprX1 H137R variant = MrgprX1 H137R variant (human, UniProt Q96LB2 1-322)
Sequence of MrgprX1 H137R variant (Q96LB2 whole entry H137R): as the sequence (Q96LB2 whole entry R131S) above, with S131R, H137R counted along it

[2] = molecular target: T1, Mas-related G protein-coupled receptor …; remark: listed apart in the source
MrgprX1 A46T variant = MrgprX1 A46T variant (human, UniProt Q96LB2 1-322)
Sequence of MrgprX1 A46T variant (Q96LB2 whole entry A46T): as the sequence (Q96LB2 whole entry R131S) above, with A46T, S131R counted along it

T1 sequence (Q96LB2 whole entry): as the sequence (Q96LB2 whole entry R131S) above, with S131R counted along it

potency relative to soluble BAM8-22, SRE-luciferase reporter, HEK293 cells [1]: ~100 fold higher potency than soluble BAM8-22
Curve Maximum, SRE-luciferase reporter, HEK293 cells (MrgprX1 R131S variant): 40.4 % of WT signal at 10^-6 M lipidated BAM8-22
EC50 (nM), SRE-luciferase reporter, HEK293 cells (MrgprX1 R131S variant): 57.1 nM
pEC50, SRE-luciferase reporter, HEK293 cells (MrgprX1 R131S variant): 7.24
Curve Maximum, SRE-luciferase reporter, HEK293 cells (MrgprX1 F273L variant): 95.9 % of WT signal at 10^-6 M lipidated BAM8-22
EC50 (nM), SRE-luciferase reporter, HEK293 cells (MrgprX1 F273L variant): 12.1 nM
pEC50, SRE-luciferase reporter, HEK293 cells (MrgprX1 F273L variant): 7.92
Curve Maximum, SRE-luciferase reporter, HEK293 cells (MrgprX1 H133R variant): 110 % of WT signal at 10^-6 M lipidated BAM8-22
EC50 (nM), SRE-luciferase reporter, HEK293 cells (MrgprX1 H133R variant): 8.6 nM
pEC50, SRE-luciferase reporter, HEK293 cells (MrgprX1 H133R variant): 8.06
Curve Maximum, SRE-luciferase reporter, HEK293 cells (MrgprX1 I36V variant): 109 % of WT signal at 10^-6 M lipidated BAM8-22
EC50 (nM), SRE-luciferase reporter, HEK293 cells (MrgprX1 I36V variant): 9.3 nM
pEC50, SRE-luciferase reporter, HEK293 cells (MrgprX1 I36V variant): 8.03
Curve Maximum, SRE-luciferase reporter, HEK293 cells (MrgprX1 R55L variant): 108 % of WT signal at 10^-6 M lipidated BAM8-22
EC50 (nM), SRE-luciferase reporter, HEK293 cells (MrgprX1 R55L variant): 10.2 nM
pEC50, SRE-luciferase reporter, HEK293 cells (MrgprX1 R55L variant): 7.99
Curve Maximum, SRE-luciferase reporter, HEK293 cells (MrgprX1 H137R variant): 109 % of WT signal at 10^-6 M lipidated BAM8-22
EC50 (nM), SRE-luciferase reporter, HEK293 cells (MrgprX1 H137R variant): 7.9 nM
pEC50, SRE-luciferase reporter, HEK293 cells (MrgprX1 H137R variant): 8.1
Curve Maximum, SRE-luciferase reporter, HEK293 cells [2]: 101 % of WT signal at 10^-6 M lipidated BAM8-22
EC50 (nM), SRE-luciferase reporter, HEK293 cells [2]: 12 nM
pEC50, SRE-luciferase reporter, HEK293 cells [2]: 7.92
Curve Maximum, SRE-luciferase reporter, HEK293 cells (MrgprX1 A46T variant): 112 % of WT signal at 10^-6 M lipidated BAM8-22
EC50 (nM), SRE-luciferase reporter, HEK293 cells (MrgprX1 A46T variant): 9.5 nM
pEC50, SRE-luciferase reporter, HEK293 cells (MrgprX1 A46T variant): 8.02
B1: Lipidated BAM8-22 (peptide)
peptide: VGRPEWWMDYQKRYGGGK([PEG8-Palmitoyl])
